Assay results reported in US20150203575A1 (Genentech, published 2015).
Read-outs that look alike come from different tables or passages of the source.

T1: MAG expressed on cells (human, UniProt P20916 20-626)
T1 construct: Clone of the Origene human cDNA library; also called Myelin associated glycoprotein; SIGLEC4A
T1 sequence: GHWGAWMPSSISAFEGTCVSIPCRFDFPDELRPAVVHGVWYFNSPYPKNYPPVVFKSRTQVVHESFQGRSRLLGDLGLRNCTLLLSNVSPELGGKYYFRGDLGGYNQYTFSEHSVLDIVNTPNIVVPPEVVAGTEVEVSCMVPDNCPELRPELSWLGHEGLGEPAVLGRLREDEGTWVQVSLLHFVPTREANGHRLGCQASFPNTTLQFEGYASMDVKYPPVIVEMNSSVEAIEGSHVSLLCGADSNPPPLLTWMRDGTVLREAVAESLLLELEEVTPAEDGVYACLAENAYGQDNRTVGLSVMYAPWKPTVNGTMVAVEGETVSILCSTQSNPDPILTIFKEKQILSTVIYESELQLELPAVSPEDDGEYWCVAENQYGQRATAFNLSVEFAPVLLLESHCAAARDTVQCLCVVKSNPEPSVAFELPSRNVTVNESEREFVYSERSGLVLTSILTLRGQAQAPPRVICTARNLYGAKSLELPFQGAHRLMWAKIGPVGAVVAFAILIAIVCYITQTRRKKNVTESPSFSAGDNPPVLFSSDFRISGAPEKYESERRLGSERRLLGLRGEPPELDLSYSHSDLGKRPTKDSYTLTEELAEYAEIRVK

T2: CLEC4G expressed on cells (human, UniProt Q6UXB4 1-293)
T2 construct: Clone of the Origene human cDNA library; also called C type lectin superfamily 4 member G
T2 sequence: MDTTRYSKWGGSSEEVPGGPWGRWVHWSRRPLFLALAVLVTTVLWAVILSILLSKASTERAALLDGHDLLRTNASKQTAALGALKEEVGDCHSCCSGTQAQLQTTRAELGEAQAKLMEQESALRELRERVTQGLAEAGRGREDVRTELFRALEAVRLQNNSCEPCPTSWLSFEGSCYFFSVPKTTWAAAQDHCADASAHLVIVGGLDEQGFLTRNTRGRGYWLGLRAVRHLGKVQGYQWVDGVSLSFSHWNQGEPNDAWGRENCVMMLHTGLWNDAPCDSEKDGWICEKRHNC

T3: BR3 expressed on cells (human, UniProt Q96RJ3 1-184)
T3 construct: Clone of the Origene human cDNA library
T3 sequence: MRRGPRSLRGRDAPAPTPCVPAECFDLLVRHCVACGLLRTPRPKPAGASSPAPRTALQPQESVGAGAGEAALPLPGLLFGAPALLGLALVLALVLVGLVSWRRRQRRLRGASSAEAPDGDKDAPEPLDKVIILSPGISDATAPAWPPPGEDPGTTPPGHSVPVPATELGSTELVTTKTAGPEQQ

T4: IL-2Ra expressed on cells (human, UniProt P01589 22-272)
T4 construct: Clone of the Origene human cDNA library; also called Interleukin 2 receptor alpha
T4 sequence: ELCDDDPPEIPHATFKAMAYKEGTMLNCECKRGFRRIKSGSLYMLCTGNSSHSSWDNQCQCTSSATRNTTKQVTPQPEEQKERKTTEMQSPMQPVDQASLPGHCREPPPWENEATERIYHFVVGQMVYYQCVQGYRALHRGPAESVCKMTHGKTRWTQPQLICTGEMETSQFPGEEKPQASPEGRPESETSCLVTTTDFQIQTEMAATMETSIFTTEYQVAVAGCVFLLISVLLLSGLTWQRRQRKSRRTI

B1: mPILRα-Fc (Fc fusion)
chain: not shown
notes: also called mouse PILRα-Fc; WT mPILRα-Fc; not shown: Fc of mouse IgG2a (PILRα-mIgG2a, called PILRα-Fc)
B2: mPILRαR133A-Fc (Fc fusion)
chain: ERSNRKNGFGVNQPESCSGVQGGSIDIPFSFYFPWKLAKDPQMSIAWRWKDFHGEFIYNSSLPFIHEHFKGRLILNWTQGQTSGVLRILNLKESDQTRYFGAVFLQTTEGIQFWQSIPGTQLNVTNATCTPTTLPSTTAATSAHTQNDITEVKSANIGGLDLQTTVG
notes: Arg mutant of mPILRα-Fc; also called mPILRα133A-Fc; variant mPILRα (R133A); not shown: Fc of mouse IgG2a (PILRα-mIgG2a, called PILRα-Fc)

Columns and labels:
[1] = target: T1, MAG expressed on cells; experiment: flow cytometry, transfected 293T cells
[2] = target: T5, human COLEC12 expressed on cells (human, UniProt Q5KU26 1-742); experiment: flow cytometry, transfected 293T cells, 2 µg/ml
T5 construct: also called hCOLEC12; C-terminal his tagged hCOLEC12
T5 sequence (Q5KU26 whole entry S522P/G606S): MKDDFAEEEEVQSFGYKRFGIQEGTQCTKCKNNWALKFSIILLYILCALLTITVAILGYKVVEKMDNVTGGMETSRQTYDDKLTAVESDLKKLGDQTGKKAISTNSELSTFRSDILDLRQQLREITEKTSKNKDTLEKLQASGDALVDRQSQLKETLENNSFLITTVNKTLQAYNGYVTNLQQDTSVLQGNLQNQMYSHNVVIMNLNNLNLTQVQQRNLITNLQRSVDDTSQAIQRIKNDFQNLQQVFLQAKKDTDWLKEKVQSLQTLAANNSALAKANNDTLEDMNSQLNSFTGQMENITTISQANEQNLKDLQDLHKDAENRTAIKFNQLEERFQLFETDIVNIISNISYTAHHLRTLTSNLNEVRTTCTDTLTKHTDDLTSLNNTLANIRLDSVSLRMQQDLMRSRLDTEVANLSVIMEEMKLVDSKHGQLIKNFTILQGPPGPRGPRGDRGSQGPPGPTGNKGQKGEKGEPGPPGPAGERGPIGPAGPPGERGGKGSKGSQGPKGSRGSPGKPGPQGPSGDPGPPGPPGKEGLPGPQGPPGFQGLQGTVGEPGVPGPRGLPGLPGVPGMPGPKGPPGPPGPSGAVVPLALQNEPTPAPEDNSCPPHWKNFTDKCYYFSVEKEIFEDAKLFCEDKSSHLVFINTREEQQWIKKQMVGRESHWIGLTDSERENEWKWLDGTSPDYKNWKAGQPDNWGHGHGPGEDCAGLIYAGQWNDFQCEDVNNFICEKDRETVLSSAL

[3] = target: T2, CLEC4G expressed on cells; experiment: flow cytometry, transfected 293T cells, 2 µg/ml
[4] = target: T5, human COLEC12 expressed on cells; experiment: flow cytometry, transfected 293T cells, 2 µg/ml; remark: listed apart in the source
[5] = target: T2, CLEC4G expressed on cells; experiment: flow cytometry, transfected 293T cells, 2 µg/ml; remark: listed apart in the source
[6] = target: T1, MAG expressed on cells; experiment: flow cytometry, transfected 293T cells, 2 µg/ml
[7] = target: T6, LRRTM4 expressed on cells (human, UniProt Q86VH4 31-590); experiment: flow cytometry, transfected 293T cells, 2 µg/ml
T6 construct: Clone of the Origene human cDNA library; also called Leucine rich repeat transmembrane neuronal 4
T6 sequence (Q86VH4 31-590 limits assumed): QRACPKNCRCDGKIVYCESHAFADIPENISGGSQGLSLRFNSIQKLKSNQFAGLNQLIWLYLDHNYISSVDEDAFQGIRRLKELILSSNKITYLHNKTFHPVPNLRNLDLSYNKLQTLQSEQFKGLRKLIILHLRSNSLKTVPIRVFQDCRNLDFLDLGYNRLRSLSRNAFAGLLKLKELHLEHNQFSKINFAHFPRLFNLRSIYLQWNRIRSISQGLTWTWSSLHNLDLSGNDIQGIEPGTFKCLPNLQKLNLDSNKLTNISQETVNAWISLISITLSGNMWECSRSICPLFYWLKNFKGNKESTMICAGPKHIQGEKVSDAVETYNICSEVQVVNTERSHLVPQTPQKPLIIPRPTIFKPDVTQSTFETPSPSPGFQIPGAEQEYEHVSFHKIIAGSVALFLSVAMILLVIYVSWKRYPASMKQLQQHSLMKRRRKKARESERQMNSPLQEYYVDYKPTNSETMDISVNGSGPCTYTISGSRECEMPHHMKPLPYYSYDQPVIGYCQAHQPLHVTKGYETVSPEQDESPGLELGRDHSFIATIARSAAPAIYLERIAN

[8] = target: T6, LRRTM4 expressed on cells; experiment: flow cytometry, transfected 293T cells, 2 µg/ml; remark: listed apart in the source
[9] = target: T2, CLEC4G expressed on cells; experiment: flow cytometry, transfected 293T cells, 50 µg/ml
[10] = target: T1, MAG expressed on cells; experiment: flow cytometry, transfected 293T cells, 50 µg/ml
[11] = target: T6, LRRTM4 expressed on cells; experiment: flow cytometry, transfected 293T cells, 50 µg/ml
[12] = target: T1, MAG expressed on cells; experiment: flow cytometry, transfected 293T cells, 50 µg/ml; remark: listed apart in the source
[13] = target: T6, LRRTM4 expressed on cells; experiment: flow cytometry, transfected 293T cells, 50 µg/ml; remark: listed apart in the source
[14] = target: T3, BR3 expressed on cells; experiment: flow cytometry, transfected 293T cells, 50 µg/ml
[15] = target: T4, IL-2Ra expressed on cells; experiment: flow cytometry, transfected 293T cells, 50 µg/ml
[16] = target: T7, PSS8 expressed on cells (human, UniProt Q16651 30-343); experiment: flow cytometry, transfected 293T cells, 50 µg/ml
T7 construct: Clone of the Origene human cDNA library; also called Protease serine 8; prostasin
T7 sequence (Q16651 30-343 limits assumed): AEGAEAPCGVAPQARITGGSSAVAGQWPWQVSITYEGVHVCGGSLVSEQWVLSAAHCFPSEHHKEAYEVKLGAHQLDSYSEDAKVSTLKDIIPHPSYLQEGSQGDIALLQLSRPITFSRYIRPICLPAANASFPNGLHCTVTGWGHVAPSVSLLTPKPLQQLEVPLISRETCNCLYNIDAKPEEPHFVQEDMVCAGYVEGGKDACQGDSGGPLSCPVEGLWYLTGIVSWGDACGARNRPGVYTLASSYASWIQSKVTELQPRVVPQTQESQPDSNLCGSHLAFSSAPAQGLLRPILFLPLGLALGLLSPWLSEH

[17] = target: T7, PSS8 expressed on cells; experiment: flow cytometry, transfected 293T cells, 50 µg/ml; remark: listed apart in the source

| Binder | binding result [1] | % cells in lower right quadrant [2] | % cells in lower right quadrant [3] | % cells in lower right quadrant [4] | % cells in lower right quadrant [5] | % cells in lower right quadrant [6] | % cells in lower right quadrant [7] | % cells in lower right quadrant [8] | % cells in lower right quadrant [9] | % cells in lower right quadrant [10] | % cells in lower right quadrant [11] | % cells in lower right quadrant [12] | % cells in lower right quadrant [13] | % cells in lower right quadrant [14] | % cells in lower right quadrant [15] | % cells in lower right quadrant [16] | % cells in lower right quadrant [17] |
| --- | --- | --- | --- | --- | --- | --- | --- | --- | --- | --- | --- | --- | --- | --- | --- | --- | --- |
| B1 | no binding (tested: 50 µg/ml) | 0.082% | 69.9% | 0.082% | 69.9% | 0.039% | 2.68% | 2.68% | 85.5% | 0.55% | 16.6% | 0.55% | 16.6% | 53.3% | 55.7% | 30.6% | 30.6% |
| B2 | no binding (tested: 50 µg/ml) | 0.014% | 0.044% | 0.014% | 0.044% | 0% | 0.025% | 0.025% | 0.045% | 0% | 0.019% |  | 0.019% |  |  |  |  |
